Reference: US20250242041A1 (Seagen, published 2025)

How the values were obtained:
[1] = target: T1, human αvβ6 on 293F:huβ6 cells (human, UniProt P06756 31-1048; P18564 22-788); test: competition binding on 293F cells
T1 chain 1: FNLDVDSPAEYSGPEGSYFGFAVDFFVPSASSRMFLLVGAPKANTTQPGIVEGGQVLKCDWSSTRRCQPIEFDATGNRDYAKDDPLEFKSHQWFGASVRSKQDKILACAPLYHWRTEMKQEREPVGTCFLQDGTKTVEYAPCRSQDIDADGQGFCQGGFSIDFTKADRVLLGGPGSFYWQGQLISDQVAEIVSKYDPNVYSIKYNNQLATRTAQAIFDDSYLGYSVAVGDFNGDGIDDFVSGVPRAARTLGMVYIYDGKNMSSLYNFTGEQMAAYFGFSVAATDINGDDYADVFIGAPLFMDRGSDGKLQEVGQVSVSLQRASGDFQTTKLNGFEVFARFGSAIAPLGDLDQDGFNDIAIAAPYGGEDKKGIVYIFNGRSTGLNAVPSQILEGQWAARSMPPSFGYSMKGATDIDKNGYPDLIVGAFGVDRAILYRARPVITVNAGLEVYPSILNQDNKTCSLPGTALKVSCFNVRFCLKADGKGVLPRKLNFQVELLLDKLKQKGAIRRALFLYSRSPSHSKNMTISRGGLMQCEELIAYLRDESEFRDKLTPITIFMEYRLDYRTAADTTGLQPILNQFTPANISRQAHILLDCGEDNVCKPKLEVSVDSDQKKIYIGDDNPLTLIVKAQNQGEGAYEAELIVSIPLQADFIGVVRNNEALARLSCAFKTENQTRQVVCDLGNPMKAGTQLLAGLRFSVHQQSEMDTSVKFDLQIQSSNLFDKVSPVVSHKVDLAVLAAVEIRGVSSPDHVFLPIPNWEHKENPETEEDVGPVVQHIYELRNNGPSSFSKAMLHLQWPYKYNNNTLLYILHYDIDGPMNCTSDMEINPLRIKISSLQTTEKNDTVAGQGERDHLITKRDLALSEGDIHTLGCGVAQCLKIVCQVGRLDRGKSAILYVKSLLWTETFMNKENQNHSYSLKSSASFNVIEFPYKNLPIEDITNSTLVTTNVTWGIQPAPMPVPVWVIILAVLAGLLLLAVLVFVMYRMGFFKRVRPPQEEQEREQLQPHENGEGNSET
T1 chain 2: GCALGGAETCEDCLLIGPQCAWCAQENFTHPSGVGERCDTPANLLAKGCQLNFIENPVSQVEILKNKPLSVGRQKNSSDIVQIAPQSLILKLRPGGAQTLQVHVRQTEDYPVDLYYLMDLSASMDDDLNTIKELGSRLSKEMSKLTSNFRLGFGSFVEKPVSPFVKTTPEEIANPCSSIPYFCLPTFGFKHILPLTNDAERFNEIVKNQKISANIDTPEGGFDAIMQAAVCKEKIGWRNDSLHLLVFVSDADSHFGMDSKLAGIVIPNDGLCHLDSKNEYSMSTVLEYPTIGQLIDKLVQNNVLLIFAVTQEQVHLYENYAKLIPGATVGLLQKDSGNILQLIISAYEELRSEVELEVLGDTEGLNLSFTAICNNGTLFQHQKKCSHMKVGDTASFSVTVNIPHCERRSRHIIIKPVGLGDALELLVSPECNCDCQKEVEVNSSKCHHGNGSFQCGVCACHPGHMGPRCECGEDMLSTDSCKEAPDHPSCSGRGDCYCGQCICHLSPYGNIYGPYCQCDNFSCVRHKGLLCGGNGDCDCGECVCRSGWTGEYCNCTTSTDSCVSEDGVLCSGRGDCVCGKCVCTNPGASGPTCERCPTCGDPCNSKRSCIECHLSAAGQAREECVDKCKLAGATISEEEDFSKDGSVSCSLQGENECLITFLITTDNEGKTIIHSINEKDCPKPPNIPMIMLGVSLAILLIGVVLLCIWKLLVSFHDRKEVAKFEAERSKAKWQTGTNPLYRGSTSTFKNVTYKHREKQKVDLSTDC

[2] = target: T2, cyno αvβ6 on 293F:cynoβ6 cells (human;Macaca fascicularis, UniProt P06756 31-1048; A0A2K5TZ36 22-787); test: competition binding on 293F cells
T2 chain 1: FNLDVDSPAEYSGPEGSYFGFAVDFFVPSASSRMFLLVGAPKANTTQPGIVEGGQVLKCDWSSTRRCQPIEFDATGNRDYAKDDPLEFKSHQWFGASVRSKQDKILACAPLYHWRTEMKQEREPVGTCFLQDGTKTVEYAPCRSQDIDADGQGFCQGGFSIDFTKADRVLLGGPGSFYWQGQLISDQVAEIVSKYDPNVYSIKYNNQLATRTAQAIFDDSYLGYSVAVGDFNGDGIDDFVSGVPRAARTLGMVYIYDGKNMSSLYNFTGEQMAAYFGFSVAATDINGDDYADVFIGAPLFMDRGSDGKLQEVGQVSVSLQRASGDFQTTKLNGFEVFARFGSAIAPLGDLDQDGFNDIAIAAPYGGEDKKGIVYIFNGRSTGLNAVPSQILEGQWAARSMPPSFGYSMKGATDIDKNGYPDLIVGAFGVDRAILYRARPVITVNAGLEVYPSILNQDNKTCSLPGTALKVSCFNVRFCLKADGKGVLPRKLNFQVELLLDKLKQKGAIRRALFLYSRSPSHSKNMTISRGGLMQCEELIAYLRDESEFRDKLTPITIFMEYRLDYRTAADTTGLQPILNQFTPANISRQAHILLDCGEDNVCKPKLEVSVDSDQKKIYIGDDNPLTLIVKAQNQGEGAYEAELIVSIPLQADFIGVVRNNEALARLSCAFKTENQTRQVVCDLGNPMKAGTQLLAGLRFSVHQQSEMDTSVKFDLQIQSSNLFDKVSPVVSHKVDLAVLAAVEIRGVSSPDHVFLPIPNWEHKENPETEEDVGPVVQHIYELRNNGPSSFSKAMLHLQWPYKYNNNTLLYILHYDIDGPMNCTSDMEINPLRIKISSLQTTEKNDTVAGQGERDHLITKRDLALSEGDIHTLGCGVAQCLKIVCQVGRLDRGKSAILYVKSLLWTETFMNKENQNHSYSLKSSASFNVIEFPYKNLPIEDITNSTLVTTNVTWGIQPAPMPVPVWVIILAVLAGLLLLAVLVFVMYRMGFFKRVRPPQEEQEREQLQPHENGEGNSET
T2 chain 2: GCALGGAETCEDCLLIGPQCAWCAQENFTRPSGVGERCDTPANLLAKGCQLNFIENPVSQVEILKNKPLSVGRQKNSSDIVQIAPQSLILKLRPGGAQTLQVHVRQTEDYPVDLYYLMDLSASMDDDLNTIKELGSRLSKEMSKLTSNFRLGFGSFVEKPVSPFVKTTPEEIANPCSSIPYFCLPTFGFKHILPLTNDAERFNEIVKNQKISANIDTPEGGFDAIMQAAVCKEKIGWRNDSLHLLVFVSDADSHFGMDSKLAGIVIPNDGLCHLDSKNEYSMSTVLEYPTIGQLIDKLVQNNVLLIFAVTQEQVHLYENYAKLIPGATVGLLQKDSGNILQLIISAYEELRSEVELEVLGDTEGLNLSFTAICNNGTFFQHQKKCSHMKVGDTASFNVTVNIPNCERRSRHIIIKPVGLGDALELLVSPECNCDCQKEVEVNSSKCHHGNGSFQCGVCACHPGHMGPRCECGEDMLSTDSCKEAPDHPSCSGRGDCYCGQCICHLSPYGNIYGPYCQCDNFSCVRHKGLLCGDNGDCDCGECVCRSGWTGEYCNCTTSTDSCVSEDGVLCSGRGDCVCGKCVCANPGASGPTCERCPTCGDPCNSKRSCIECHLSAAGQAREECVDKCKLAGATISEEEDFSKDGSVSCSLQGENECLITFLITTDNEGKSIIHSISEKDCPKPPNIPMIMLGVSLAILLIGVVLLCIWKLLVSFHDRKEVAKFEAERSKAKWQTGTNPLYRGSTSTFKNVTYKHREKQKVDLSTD

[3] = target: T2, cyno αvβ6 on 293F:cynoβ6 cells; test: saturation binding on 293F cells; AF647-labeled
[4] = target: T1, human αvβ6 on 293F:huβ6 cells; test: competition binding on 293F cells; 2nM m2A2-AF647 competitor
[5] = target: T1, human αvβ6 on 293F:huβ6 cells; test: as above

B1: h2A2 HCLG humanized antibody (antibody, human IgG1, kappa, V domains shown)
VH: QFQLVQSGAEVKKPGASVKVSCKASGYSFTDYNVNWVRQAPGQGLEWIGVINPKYGTTRYNQKFKGRATLTVDKSTSTAYMELSSLRSEDTAVYYCTRGLNAWDYWGQGTLVTVSS
VL: DIQMTQSPSSLSASVGDRVTITCGASENIYGALNWYQQKPGKAPKLLIYGATNLEDGVPSRFSGSGSGRDYTFTISSLQPEDIATYYCQNVLTTPYTFGQGTKLEIKR
notes: Labelled with AlexaFluor-647 in the saturation assay; also called humanized 2A2 HCLG
With B1 the EC50 [1] was 3 nM, the EC50 [2] was 3 nM and the EC50 [3] was 0.2 nM. For the same binder, the EC50 [4] was 1 nM and the EC50 [5] was 1 nM.
